One test has as its target HLA-A*02:16. Briefly: IEDB peptide-MHC binding, purified MHC/competitive/fluorescence; filed as Kd, often an IC50 or EC50 that approximates it; ≥ and ≤ were set here for values at or beyond the usual limits of such assays.
The target in test [1] is HLA-A*02:01. Described as above.
The target of test [2] is HLA-A*03:01. Put plainly: IEDB peptide-MHC binding, purified MHC/competitive/fluorescence; ≥ and ≤ were set here for values at or beyond the usual limits of such assays.
Another test concerns the target HLA-C*15:02. Briefly: IEDB peptide-MHC binding, purified MHC/direct/fluorescence; filed as Kd, often an IC50 or EC50 that approximates it; ≥ and ≤ were set here for values at or beyond the usual limits of such assays.
Test [3] has as its target HLA-A*02:11. Described as above. Conditions: source organism: Mycobacterium tuberculosis str. Haarlem.
Test [4] concerns the target HLA-A*69:01. The description is as above. Conditions: source organism: Mycobacterium tuberculosis.
Test [5] has as its target HLA-A*11:01. Put plainly: IEDB peptide-MHC binding, purified MHC/competitive/fluorescence; ≥ and ≤ were set here for values at or beyond the usual limits of such assays.
In test [6] the target is HLA-B*15:01. Described as above.
Test [7] addresses HLA-A*02:01. The description is as above.
Test [8] deals with HLA-B*15:01. Briefly: IEDB peptide-MHC binding, purified MHC/direct/fluorescence; filed as Kd, often an IC50 or EC50 that approximates it; ≥ and ≤ were set here for values at or beyond the usual limits of such assays.
For test [9], the target named is HLA-A*03:01. The description is as above. Conditions: source organism: Escherichia coli O157:H7.
In the next test the target is HLA-B*58:01. The test is described as above.
The target in test [10] is HLA-A*68:02. Described as above. Particulars: source organism: Escherichia coli O157:H7.
The next test addresses HLA-B*18:01. The test is described as above. Conditions: source organism: Escherichia coli O157:H7.
Test [11] has as its target HLA-B*57:01. Described as above.
Test [12] concerns the target HLA-A*11:01. The test is described as above. Conditions: source organism: Escherichia coli O157:H7.
Another test has as its target HLA-A*31:01. The description is as above. Conditions: source organism: Escherichia coli O157:H7.
The next test has as its target HLA-B*40:01. The test is described as above. Conditions: source organism: Escherichia coli O157:H7.
The target in a further test is HLA-A*01:01. Described as above. Particulars: source organism: Escherichia coli O157:H7.
A further test addresses HLA-B*07:02. The test is described as above. Conditions: source organism: Escherichia coli O157:H7.
Test [13] has as its target HLA-B*46:01. The test is described as above. Conditions: source organism: Escherichia coli O157:H7.
The target in the next test is HLA-B*48:01. Described as above. Conditions: source organism: Escherichia coli O157:H7.
The target of the next test is HLA-B*15:17. The description is as above.
The target of another test is HLA-B*27:05. The test is described as above. Conditions: source organism: Escherichia coli O157:H7.
The target in test [14] is HLA-A*02:01. Described as above. Conditions: source organism: Escherichia coli O157:H7.
The next test has as its target HLA-A*02:19. Put plainly: IEDB peptide-MHC binding, purified MHC/competitive/fluorescence; filed as Kd, often an IC50 or EC50 that approximates it; ≥ and ≤ were set here for values at or beyond the usual limits of such assays.
The target in the next test is HLA-B*39:01. The description is as above.
Test [15] addresses HLA-A*02:11. The test is described as above. Particulars: source organism: Human immunodeficiency virus 1.
Test [16] deals with HLA-A*69:01. Described as above. Conditions: source organism: Human immunodeficiency virus 1.
The next test deals with HLA-A*02:12. The description is as above.
The next test deals with HLA-A*02:02. Briefly: IEDB peptide-MHC binding, purified MHC/competitive/radioactivity; filed as Kd, often an IC50 or EC50 that approximates it; ≥ and ≤ were set here for values at or beyond the usual limits of such assays. Conditions: source organism: Human immunodeficiency virus type 1 (CLONE 12).
The target in test [17] is HLA-A*03:01. Put plainly: IEDB peptide-MHC binding, purified MHC/competitive/fluorescence; filed as Kd, often an IC50 or EC50 that approximates it; ≥ and ≤ were set here for values at or beyond the usual limits of such assays. Particulars: source organism: Vibrio vulnificus YJ016.
Test [18] deals with HLA-A*68:02. The test is described as above. Conditions: source organism: Vibrio vulnificus YJ016.
Test [19] has as its target HLA-B*57:01. The test is described as above. Particulars: source organism: Vibrio vulnificus YJ016.
Test [20] deals with HLA-B*15:01. Described as above. Particulars: source organism: Vibrio vulnificus YJ016.
A further test has as its target HLA-A*02:03. The test is described as above. Particulars: source organism: Vibrio vulnificus YJ016.
The target in another test is HLA-A*26:01. The description is as above. Conditions: source organism: Vibrio vulnificus YJ016.
The target of test [21] is HLA-B*46:01. The description is as above. Particulars: source organism: Vibrio vulnificus YJ016.
Another test concerns the target HLA-B*27:03. The description is as above. Conditions: source organism: Vibrio vulnificus YJ016.
Setting [22] is: source organism: Entamoeba histolytica HM-1:IMSS.
The mark [23] stands for this setting: source organism: Zaire ebolavirus.
The mark [24] stands for this setting: source organism: Vaccinia virus WR.
Setting [25] is: source organism: Sudan ebolavirus.
[26] abbreviates: source organism: Escherichia coli O157:H7.
[27] abbreviates: source organism: dengue virus type 3.
[28] abbreviates: source organism: Human immunodeficiency virus 1.
The mark [29] stands for this setting: source organism: Yersinia pestis.
The mark [30] stands for this setting: source organism: Vibrio vulnificus YJ016.

For orientation: Kd means the constant that tells how readily two partners part at equilibrium. For SLKERIDML, the values for the Kd with HLA-A*02:16 (setting [22]) and with HLA-A*02:01 [1] (setting [22]) were 0.0028 µM and 0.0013 µM, respectively.
By IC50 is commonly meant the point on the concentration scale where inhibition reaches its midpoint. For TIYTSGKRS, in the test with HLA-A*03:01 [2] (setting [23]), the concentration for half-maximal inhibition (IC50) came to 37.4 µM.
Regarding GLYEFTILV, the Kd with HLA-C*15:02 (source organism: Mycobacterium tuberculosis C) is at least 20 µM.
For RMWEFLDRL, the results for the equilibrium dissociation constant (Kd) with HLA-A*02:11 [3] and with HLA-A*69:01 [4] were at most 0.001 µM and 2.18 µM, respectively.
For QGYSHGDIK, the results for the half-maximal inhibitory concentration (IC50) with HLA-A*03:01 [2] (setting [24]) and with HLA-A*11:01 [5] (setting [24]) were 12.1 µM and 1.79 µM, respectively.
As to MQISTIGIR, the concentration for half-maximal inhibition (IC50) with HLA-A*03:01 [2] (setting [25]) is at least 145 µM; in the test with HLA-A*11:01 [5] (setting [25]) it was 2.56 µM; with HLA-B*15:01 [6] (setting [25]) it was 26.5 µM; with HLA-A*02:01 [7] (setting [25]), at least 117 µM.
Regarding KMIDGIGRF, the Kd with HLA-C*15:02 (source organism: Influenza A virus (A/81/HO)) is at least 20 µM; with HLA-B*15:01 [8] (source organism: H1N1 swine influenza virus (A/swine/Korea/S10/2004(H1N1))) it was 0.194 µM.
Turning to WLSVIAFGK, the Kd with HLA-A*03:01 [9] was 1.63 µM; with HLA-B*58:01 (setting [26]), at least 20 µM; with HLA-A*68:02 [10] it was at least 20 µM; in the test with HLA-B*18:01, at least 20 µM; in the test with HLA-B*57:01 [11] (setting [26]), at least 20 µM; in the test with HLA-A*11:01 [12] it was 2.24 µM. Also, the equilibrium dissociation constant (Kd) with HLA-B*15:01 [8] (setting [26]), in the test with HLA-A*31:01, in the test with HLA-B*40:01, in the test with HLA-A*01:01, in the test with HLA-B*07:02 and with HLA-B*46:01 [13] was at least 20 µM in each case. In addition, the Kd in the test with HLA-B*48:01, with HLA-B*15:17 (setting [26]), with HLA-B*27:05 and in the test with HLA-A*02:01 [14] was at least 20 µM in each case.
For the sequence VVFSTSDGK, the results for the half-maximal inhibitory concentration (IC50) with HLA-A*03:01 [2] (setting [23]), with HLA-A*11:01 [5] (setting [23]) and in the test with HLA-A*02:01 [7] (setting [23]) were 4.54 µM, 1.03 µM and at least 387 µM, respectively.
ICSAVPVHW: the dissociation constant Kd was determined as 0.417 µM with HLA-B*57:01 [11] (setting [27]) and 0.373 µM with HLA-B*15:17 (setting [27]).
Consider AIIRILQQL, for which the Kd with HLA-A*02:19 (setting [28]) was 0.116 µM; in the test with HLA-B*39:01 (setting [28]), at least 20 µM; with HLA-A*02:16 (setting [28]), 0.00151 µM; with HLA-A*02:11 [15], 0.00021 µM; with HLA-A*69:01 [16], 0.578 µM; with HLA-A*02:01 [1] (setting [28]) it was 0.0048 µM. The figures for the Kd with HLA-A*02:12 (setting [28]) and in the test with HLA-A*02:02 were 0.011 µM and 0.374 µM, respectively.
On to ITAASLPKT, for which the 50% inhibitory concentration (IC50) in the test with HLA-A*03:01 [2] (setting [23]) came out at 30.4 µM; with HLA-A*11:01 [5] (setting [23]), 2.9 µM; with HLA-A*02:01 [7] (setting [23]), 4.9 µM.
For the sequence MAMPEYWQF, the dissociation constant (Kd) with HLA-B*58:01 (setting [29]) is 0.0017 µM; with HLA-C*15:02 (source organism: Yersinia pestis Nepal516) it was at least 20 µM; with HLA-B*57:01 [11] (setting [29]) it was 0.0237 µM; with HLA-B*15:17 (setting [29]) it was 0.0088 µM.
For the sequence ILNTIQFMH, the concentration for half-maximal inhibition (IC50) is 3.36 µM with HLA-A*03:01 [2] (setting [24]), 2.68 µM with HLA-A*11:01 [5] (setting [24]), at least 111 µM with HLA-B*15:01 [6] (setting [24]) and 5.12 µM with HLA-A*02:01 [7] (setting [24]).
For the sequence TVADVRHCL, in the test with HLA-C*15:02 (source organism: Vaccinia virus Copenhagen), the dissociation constant (Kd) was 0.495 µM.
Take KIFLHFSIL: in the test with HLA-C*15:02 (source organism: Rickettsia sibirica 246), the dissociation constant (Kd) came to 0.919 µM.
On to IALPVAWLF, for which the Kd in the test with HLA-A*03:01 [17] was at least 20 µM; with HLA-A*68:02 [18], at least 20 µM; with HLA-B*57:01 [19], 0.0624 µM; with HLA-B*15:01 [20] it was at least 20 µM; in the test with HLA-A*02:19 (setting [30]), at least 20 µM; in the test with HLA-A*02:03, at least 20 µM. Further, the equilibrium dissociation constant (Kd) with HLA-B*39:01 (setting [30]), with HLA-A*02:16 (setting [30]), with HLA-A*26:01, with HLA-B*46:01 [21], with HLA-A*02:01 [1] (setting [30]) and with HLA-A*02:12 (setting [30]) was at least 20 µM in each case. For the same sequence, in the test with HLA-B*27:03, the Kd is at least 20 µM.

The record behind these values is the Immune Epitope Database (IEDB).
